Patent US20220025021A1 (BETH ISRAEL DEACONESS MEDICAL CENTER, published 2022)
Numbering of substitutions follows the chain as printed.

B1: MS-99 (antibody)
VH: not shown
VL: DFVLTQSPLSLSVTPGESASISCKSSHSLIHGDRNNYLAWYVQKPGRSPQLLIYLASSRASGVPDRFSGSGSDKDFTLKISRVEAEDVGTYYCMQGRESPWTFGQGTKVDIKRTVAAPSVFIFPPSDEQLKSGTASVVCLLNNFYPREAKVQWKVDNALQSGNSQESVTEQDSKDSTYSLSSTLTLSKADYEKHKVYACEVTHQGLSSPVTKSFNRGEC
B2: MS-107 (antibody)
VH: not shown
VL: B1 VL with F2I, L9H, S18P
B3: MS-102 (antibody)
VH: not shown
VL: B1 VL with L9H, D73G
B4: MS-110 (antibody)
VH: not shown
VL: B1 VL with S18P
B5: MS-103 (antibody)
VH: not shown
VL: B1 VL with F2I, S18P, A85T
B6: MS-109 (antibody)
VH: not shown
VL: B1 VL with S18P, D73G, A85T
B7: MS-106 (antibody)
VH: not shown
VL: B1 VL with F2I, L9H, S18P, D73G, A85T
B8: MS-112 (antibody)
VH: not shown
VL: B1 VL with L9H, S18P, D73G
B9: MS-111 (antibody)
VH: not shown
VL: B1 VL with D73G
B10: MS-100 (antibody)
VH: not shown
VL: B1 VL with L9H, S18P, D73G, A85T
B11: MS-108 (antibody)
VH: not shown
VL: B1 VL with F2I, L9H, D73G
B12: MS-101 (antibody)
VH: not shown
VL: B1 VL with L9H, S18P
B13: MS-104 (antibody)
VH: not shown
VL: B1 VL with F2I, D73G, A85T
B14: MS-105 (antibody)
VH: not shown
VL: B1 VL with F2I

Columns and labels:
Test in all cases: cell-based or functional assay
[1] = target: HIV-1 pseudovirus Ce1176_A3 (envelope glycoprotein) (HIV-1)
[2] = target: HIV-1 pseudovirus SC05.8C11.2344 (envelope glycoprotein) (HIV-1)
[3] = target: HIV-1 pseudovirus X1193_c1 (envelope glycoprotein) (HIV-1)
[4] = target: HIV-1 pseudovirus 263-8 (envelope glycoprotein) (HIV-1)
[5] = target: HIV-1 pseudovirus AC10.0.29 (envelope glycoprotein) (HIV-1)
[6] = target: HIV-1 pseudovirus 6952.v1.c20 (envelope glycoprotein) (HIV-1)

Row | Binder | neutralization IC50 [1] [µg/mL] | neutralization IC80 [1] [µg/mL] | neutralization IC50 [2] [µg/mL] | neutralization IC80 [2] [µg/mL] | neutralization IC50 [3] [µg/mL] | neutralization IC80 [3] [µg/mL] | neutralization IC50 [4] [µg/mL] | neutralization IC80 [4] [µg/mL] | neutralization IC50 [5] [µg/mL] | neutralization IC80 [5] [µg/mL] | neutralization IC50 [6] [µg/mL] | neutralization IC80 [6] [µg/mL]
1 | B1 | 0.074 | 1.25 | 0.759 | 2.49 | 0.13 | 0.57 | 0.011 | 0.041 | 0.072 | 0.328 | 0.217 | 1.99
2 | B2 | 0.147 | 3.99 | 0.658 | 2.28 | 0.13 | 0.57 | 0.016 | 0.055 | 0.079 | 0.397 | 0.457 | 8.87
3 | B3 | 0.039 | 2.75 | 0.527 | 1.42 | 0.071 | 0.412 | 0.007 | 0.027 | 0.047 | 0.168 | 0.162 | 2.53
4 | B4 | 0.097 | 2.5 | 0.914 | 3.1 | 0.106 | 0.677 | 0.01 | 0.038 | 0.076 | 0.285 | 0.195 | 2.12
5 | B5 | 0.172 | 3.13 | 0.707 | 2.44 | 0.112 | 0.502 | 0.018 | 0.07 | 0.07 | 0.334 | 0.485 | 5.95
6 | B6 | 0.078 | 5.83 | 0.546 | 1.85 | 0.073 | 0.467 | 0.01 | 0.033 | 0.04 | 0.199 | 0.188 | 1.74
7 | B7 | 0.099 | 3.43 | 0.411 | 1.44 | 0.093 | 0.394 | 0.011 | 0.039 | 0.062 | 0.299 | 0.216 | 3.8
8 | B8 | 0.068 | 2.03 | 0.501 | 1.68 | 0.069 | 0.293 | 0.013 | 0.037 | 0.056 | 0.262 | 0.16 | 1.47
9 | B9 | 0.082 | 3.12 | 0.496 | 1.69 | 0.109 | 0.352 | 0.016 | 0.045 | 0.061 | 0.258 | 0.213 | 2.1
10 | B10 | 0.048 | 0.905 | 0.531 | 1.77 | 0.058 | 0.358 | 0.006 | 0.026 | 0.042 | 0.211 | 0.182 | 1.68
11 | B11 | 0.117 | 3.84 | 0.428 | 1.45 | 0.083 | 0.545 | 0.012 | 0.042 | 0.045 | 0.216 | 0.323 | 3.37
12 | B12 | 0.043 | 1.94 | 0.819 | 2.69 | 0.098 | 0.602 | 0.011 | 0.041 | 0.045 | 0.221 | 0.254 | 3.51
13 | B13 | 0.218 | 6.11 | 0.512 | 1.73 | 0.063 | 0.388 | 0.014 | 0.052 | 0.041 | 0.208 | 0.457 | 8.61
14 | B14 | 0.172 | 3.39 | 0.794 | 2.73 | 0.067 | 0.417 | 0.017 | 0.062 | 0.051 | 0.394 | 0.706 | 9.49
